Test results published in patent publication EP4741426A1.

Target: CD215 (IL-15Rα), CD122 (IL-15Rβ), and CD132 (IL-15Rγ) proteins expressed together on the HEK Blue cell line
Test: cell-based or functional assay

Wild-type IL-2 (from UniProt P60568 21-153) (ligand)
EC50 (nM), SEAP reporter at 620 nm, HEK Blue cell line: 0.007 nM
